Source: PMC8327961, “Nse5/6 inhibits the Smc5/6 ATPase and modulates DNA substrate binding” (The EMBO Journal, 2021)

How the values were obtained:
Smc5/6 core hexamer = molecular target: T1, Smc5/6 core hexamer (Saccharomyces cerevisiae, UniProt Q08204+Q12749); experiment: pyruvate kinase/lactate dehydrogenase coupled ATPase assay; type: biochemical; details: Walker B mutation in both Smc5 and Smc6, residue numbers not told; ATPase buffer pH 7.5, 2 mM MgCl2; 25 °C
T1 construct: full-length Smc5, Smc6, Nse1, Nse2, Nse3, Nse4 co-expressed in E. coli Rosetta (DE3); C-terminal 3C-Twin-Strep-tag on Smc6; with Non-structural maintenance of chromosomes element 1; E3 SUMO-protein ligase MMS21; Non-structural maintenance of chromosome element 3; Non-structural maintenance of chromosome element 4
T1 sequence (Q08204 whole entry, one chain of several): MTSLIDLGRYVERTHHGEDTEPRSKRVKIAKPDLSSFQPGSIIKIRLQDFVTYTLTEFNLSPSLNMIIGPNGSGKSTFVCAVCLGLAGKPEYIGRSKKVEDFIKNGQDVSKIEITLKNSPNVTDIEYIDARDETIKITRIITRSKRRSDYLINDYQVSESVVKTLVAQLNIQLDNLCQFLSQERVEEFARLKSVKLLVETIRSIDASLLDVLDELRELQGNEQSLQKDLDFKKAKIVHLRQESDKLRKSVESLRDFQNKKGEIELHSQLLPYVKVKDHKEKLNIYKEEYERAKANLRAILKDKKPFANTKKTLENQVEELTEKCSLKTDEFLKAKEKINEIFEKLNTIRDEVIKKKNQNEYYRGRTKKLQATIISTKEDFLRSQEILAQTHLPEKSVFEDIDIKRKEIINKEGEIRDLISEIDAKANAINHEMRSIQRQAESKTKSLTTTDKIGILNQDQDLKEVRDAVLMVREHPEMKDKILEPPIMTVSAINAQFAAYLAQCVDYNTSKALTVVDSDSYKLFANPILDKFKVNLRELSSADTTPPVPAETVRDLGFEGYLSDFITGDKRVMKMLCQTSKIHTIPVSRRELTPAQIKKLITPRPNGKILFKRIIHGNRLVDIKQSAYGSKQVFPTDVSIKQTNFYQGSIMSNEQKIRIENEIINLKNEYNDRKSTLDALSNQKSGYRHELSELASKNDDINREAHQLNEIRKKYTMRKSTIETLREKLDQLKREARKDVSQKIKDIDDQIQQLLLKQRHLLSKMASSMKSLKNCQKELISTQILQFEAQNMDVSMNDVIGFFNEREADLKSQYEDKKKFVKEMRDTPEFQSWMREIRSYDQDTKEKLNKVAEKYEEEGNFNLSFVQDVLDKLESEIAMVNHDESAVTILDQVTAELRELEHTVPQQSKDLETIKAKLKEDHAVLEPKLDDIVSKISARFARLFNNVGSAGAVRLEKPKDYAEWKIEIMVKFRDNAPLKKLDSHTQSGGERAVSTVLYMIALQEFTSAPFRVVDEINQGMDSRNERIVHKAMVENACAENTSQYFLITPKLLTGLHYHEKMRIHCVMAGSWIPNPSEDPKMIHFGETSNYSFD
T1 sequence (Q07913 whole entry partner, one chain of several): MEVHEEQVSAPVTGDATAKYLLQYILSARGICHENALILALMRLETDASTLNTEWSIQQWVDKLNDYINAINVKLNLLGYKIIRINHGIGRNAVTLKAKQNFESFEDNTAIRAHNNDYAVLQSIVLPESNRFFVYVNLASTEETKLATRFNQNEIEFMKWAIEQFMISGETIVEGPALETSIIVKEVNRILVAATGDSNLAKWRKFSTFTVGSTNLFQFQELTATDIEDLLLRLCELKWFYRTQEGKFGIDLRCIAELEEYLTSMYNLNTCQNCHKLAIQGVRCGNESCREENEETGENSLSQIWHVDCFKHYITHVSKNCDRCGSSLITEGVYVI
T1 sequence (P38632 whole entry partner, one chain of several): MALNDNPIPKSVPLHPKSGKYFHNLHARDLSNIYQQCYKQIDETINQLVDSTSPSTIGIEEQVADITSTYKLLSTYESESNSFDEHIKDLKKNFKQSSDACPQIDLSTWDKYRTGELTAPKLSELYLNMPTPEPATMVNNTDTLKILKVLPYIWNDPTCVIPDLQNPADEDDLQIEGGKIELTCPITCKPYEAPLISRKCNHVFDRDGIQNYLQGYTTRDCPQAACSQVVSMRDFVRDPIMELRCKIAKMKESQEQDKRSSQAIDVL
T1 sequence (Q05541 whole entry partner, one chain of several): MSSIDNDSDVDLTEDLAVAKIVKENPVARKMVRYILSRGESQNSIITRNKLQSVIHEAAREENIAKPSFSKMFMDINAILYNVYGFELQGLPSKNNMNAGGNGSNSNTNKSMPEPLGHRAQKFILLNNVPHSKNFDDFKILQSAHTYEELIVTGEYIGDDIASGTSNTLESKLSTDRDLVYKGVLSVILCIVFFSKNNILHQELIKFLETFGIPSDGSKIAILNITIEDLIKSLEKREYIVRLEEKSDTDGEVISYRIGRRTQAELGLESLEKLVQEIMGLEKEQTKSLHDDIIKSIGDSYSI
T1 sequence (P43124 whole entry partner, one chain of several): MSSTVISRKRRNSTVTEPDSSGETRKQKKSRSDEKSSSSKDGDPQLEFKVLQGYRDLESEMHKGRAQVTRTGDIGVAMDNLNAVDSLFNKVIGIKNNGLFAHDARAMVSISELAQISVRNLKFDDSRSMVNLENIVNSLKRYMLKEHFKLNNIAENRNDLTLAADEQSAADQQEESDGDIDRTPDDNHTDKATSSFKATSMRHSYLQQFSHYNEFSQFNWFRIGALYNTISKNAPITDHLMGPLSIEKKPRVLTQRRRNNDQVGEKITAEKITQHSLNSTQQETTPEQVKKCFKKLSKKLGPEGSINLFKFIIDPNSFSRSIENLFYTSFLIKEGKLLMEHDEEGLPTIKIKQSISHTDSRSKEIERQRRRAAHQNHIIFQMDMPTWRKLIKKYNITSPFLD

[1] = molecular target: Smc5/6 hexamer (Smc5, Smc6, Nse1, Nse2, Nse3, Nse4) (Saccharomyces cerevisiae, UniProt Q08204;Q12749;Q07913;P38632;Q05541;P43124 1-1093;1-1114;1-336;1-267;1-303;1-402); experiment: fluorescence anisotropy; ATPase buffer: 10 mM Hepes-KOH pH 7.5, 150 mM K-OAc, 2 mM MgCl2, 20% glycerol; anisotropy at 25 C; plasmid pulldown bound at room temperature, high-salt buffer; details: protein: recombinant; tags: C-terminal 3C-Twin-Strep on Smc6; copies: 1;1;1;1;1;1; blunt
Nse5/6 dimer = molecular target: T2, Nse5/6 dimer (Saccharomyces cerevisiae, UniProt Q03718;P40026 1-556;1-464); experiment: as above; details: protein: recombinant; copies: 1;1; blunt
T2 sequence 1: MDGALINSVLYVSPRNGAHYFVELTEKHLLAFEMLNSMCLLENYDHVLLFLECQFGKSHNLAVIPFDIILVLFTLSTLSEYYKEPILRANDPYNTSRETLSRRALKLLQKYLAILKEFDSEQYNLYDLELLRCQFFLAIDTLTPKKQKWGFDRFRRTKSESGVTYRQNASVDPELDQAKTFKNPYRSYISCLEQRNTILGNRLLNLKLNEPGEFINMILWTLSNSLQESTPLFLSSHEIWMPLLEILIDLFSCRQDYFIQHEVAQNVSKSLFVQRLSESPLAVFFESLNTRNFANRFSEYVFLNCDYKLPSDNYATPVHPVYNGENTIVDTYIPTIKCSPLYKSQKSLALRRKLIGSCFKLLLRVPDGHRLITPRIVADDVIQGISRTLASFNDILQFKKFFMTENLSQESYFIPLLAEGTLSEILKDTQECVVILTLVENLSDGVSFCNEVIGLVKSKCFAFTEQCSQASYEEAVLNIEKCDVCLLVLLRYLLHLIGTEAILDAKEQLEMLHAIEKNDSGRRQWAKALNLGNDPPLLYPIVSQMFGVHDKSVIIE
T2 sequence 2: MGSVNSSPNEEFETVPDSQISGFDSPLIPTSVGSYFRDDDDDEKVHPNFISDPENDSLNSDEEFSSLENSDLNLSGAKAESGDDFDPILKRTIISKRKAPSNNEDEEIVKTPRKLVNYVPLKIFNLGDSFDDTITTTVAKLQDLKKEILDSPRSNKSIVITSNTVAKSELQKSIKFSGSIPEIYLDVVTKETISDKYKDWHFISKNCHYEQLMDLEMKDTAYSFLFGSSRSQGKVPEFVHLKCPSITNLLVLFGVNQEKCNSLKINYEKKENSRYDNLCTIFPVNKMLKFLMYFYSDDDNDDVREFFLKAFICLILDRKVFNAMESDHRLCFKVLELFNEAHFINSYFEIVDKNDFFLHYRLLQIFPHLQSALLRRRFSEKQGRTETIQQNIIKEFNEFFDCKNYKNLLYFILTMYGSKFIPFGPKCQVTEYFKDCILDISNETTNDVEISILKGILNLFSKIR

[2] = molecular target: Smc5/6 octamer (hexamer plus Nse5/6) (Saccharomyces cerevisiae, UniProt Q08204;Q12749;Q07913;P38632;Q05541;P43124;Q03718;P40026 …); experiment: as above; details: protein: recombinant; tags: C-terminal 3C-Twin-Strep on Smc6; reconstitution with Nse5 C-terminal AviTag-3C-Twin-Strep; copies: 1;1;1;1;1;1;1;1; blunt
Smc6-3C-Twin-Strep = molecular target: T3, Smc6-3C-Twin-Strep (S. cerevisiae, UniProt Q12749 1-1114); experiment: cross-linking; BMOE (1 mM, 45 s) on hexamers with reporter cysteines, 0.5 µM in ATPase buffer; without or with Nse5/6 (0.625 µM), 2 mM ATP, plasmid DNA or 40 bp DNA; SDS-PAGE, Coomassie; details: both partners purified
T3 construct: Smc6, S. cerevisiae; stood in the assays as a subunit of the hexamer or octamer; also called Smc6-Twin-Strep; Smc6-3C-TS; source: E. coli (DE3) Rosetta, co-expressed with the other subunits of the hexamer, purified as part of the complex; not shown: Twin-Strep (after a 3C site), C-terminal, kept
T3 sequence (looked up): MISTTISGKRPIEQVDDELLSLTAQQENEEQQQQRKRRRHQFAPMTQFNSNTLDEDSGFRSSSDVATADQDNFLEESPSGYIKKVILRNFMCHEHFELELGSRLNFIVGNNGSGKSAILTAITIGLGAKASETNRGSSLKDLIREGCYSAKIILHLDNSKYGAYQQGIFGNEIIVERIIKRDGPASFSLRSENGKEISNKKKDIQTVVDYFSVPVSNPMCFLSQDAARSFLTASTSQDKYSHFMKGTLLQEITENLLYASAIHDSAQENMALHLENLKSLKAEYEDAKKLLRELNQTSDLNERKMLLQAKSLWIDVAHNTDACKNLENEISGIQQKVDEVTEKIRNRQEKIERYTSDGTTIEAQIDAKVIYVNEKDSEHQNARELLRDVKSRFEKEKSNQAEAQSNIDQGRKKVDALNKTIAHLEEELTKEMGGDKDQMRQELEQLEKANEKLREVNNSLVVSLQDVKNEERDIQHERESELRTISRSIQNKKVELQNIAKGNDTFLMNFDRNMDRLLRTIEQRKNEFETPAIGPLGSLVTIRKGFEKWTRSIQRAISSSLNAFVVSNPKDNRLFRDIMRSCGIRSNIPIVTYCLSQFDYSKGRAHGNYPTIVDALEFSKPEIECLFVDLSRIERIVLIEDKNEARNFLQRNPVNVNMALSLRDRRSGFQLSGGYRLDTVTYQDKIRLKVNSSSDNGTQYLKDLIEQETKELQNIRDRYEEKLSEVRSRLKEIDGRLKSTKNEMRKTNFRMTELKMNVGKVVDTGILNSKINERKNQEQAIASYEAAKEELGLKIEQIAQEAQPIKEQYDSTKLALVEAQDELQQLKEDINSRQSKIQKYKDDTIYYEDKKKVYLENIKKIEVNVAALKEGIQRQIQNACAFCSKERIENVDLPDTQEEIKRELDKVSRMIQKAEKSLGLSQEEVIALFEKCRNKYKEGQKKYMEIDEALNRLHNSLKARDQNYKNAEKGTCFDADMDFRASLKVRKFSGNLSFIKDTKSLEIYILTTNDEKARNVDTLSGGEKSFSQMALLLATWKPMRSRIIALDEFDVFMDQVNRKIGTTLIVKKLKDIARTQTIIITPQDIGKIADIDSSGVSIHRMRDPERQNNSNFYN

Nc1ncnc2c1ncn2[C@@H]1O[C@H](COP(=O)(O)OP(=O)(O)OP(=O)(O)O)[C@@H](O)[C@H]1O [ATP]
no noticeable ATP hydrolysis (Smc5/6 core hexamer): did not display noticeable ATP hydrolysis activity

B1: 40bpDNA (STI699/STI700) (dsDNA)
DNA 1: TTAGTTGTTCGTAGTGCTCGTCTGGCTCTGGATTACCCGC
DNA 2: GCGGGTAATCCAGAGCCAGACGAGCACTACGAACAACTAA
Kd [1]: ~150 nM | binding result (Nse5/6 dimer): no binding | Kd [2]: ~100 nM

B2: Smc5(N975C) (natural protein, S. cerevisiae, UniProt Q08204 1-1093, looked up)
chain: MTSLIDLGRYVERTHHGEDTEPRSKRVKIAKPDLSSFQPGSIIKIRLQDFVTYTLTEFNLSPSLNMIIGPNGSGKSTFVCAVCLGLAGKPEYIGRSKKVEDFIKNGQDVSKIEITLKNSPNVTDIEYIDARDETIKITRIITRSKRRSDYLINDYQVSESVVKTLVAQLNIQLDNLCQFLSQERVEEFARLKSVKLLVETIRSIDASLLDVLDELRELQGNEQSLQKDLDFKKAKIVHLRQESDKLRKSVESLRDFQNKKGEIELHSQLLPYVKVKDHKEKLNIYKEEYERAKANLRAILKDKKPFANTKKTLENQVEELTEKCSLKTDEFLKAKEKINEIFEKLNTIRDEVIKKKNQNEYYRGRTKKLQATIISTKEDFLRSQEILAQTHLPEKSVFEDIDIKRKEIINKEGEIRDLISEIDAKANAINHEMRSIQRQAESKTKSLTTTDKIGILNQDQDLKEVRDAVLMVREHPEMKDKILEPPIMTVSAINAQFAAYLAQCVDYNTSKALTVVDSDSYKLFANPILDKFKVNLRELSSADTTPPVPAETVRDLGFEGYLSDFITGDKRVMKMLCQTSKIHTIPVSRRELTPAQIKKLITPRPNGKILFKRIIHGNRLVDIKQSAYGSKQVFPTDVSIKQTNFYQGSIMSNEQKIRIENEIINLKNEYNDRKSTLDALSNQKSGYRHELSELASKNDDINREAHQLNEIRKKYTMRKSTIETLREKLDQLKREARKDVSQKIKDIDDQIQQLLLKQRHLLSKMASSMKSLKNCQKELISTQILQFEAQNMDVSMNDVIGFFNEREADLKSQYEDKKKFVKEMRDTPEFQSWMREIRSYDQDTKEKLNKVAEKYEEEGNFNLSFVQDVLDKLESEIAMVNHDESAVTILDQVTAELRELEHTVPQQSKDLETIKAKLKEDHAVLEPKLDDIVSKISARFARLFNNVGSAGAVRLEKPKDYAEWKIEIMVKFRDCAPLKKLDSHTQSGGERAVSTVLYMIALQEFTSAPFRVVDEINQGMDSRNERIVHKAMVENACAENTSQYFLITPKLLTGLHYHEKMRIHCVMAGSWIPNPSEDPKMIHFGETSNYSFD
notes: Smc5, S. cerevisiae; pairs with the natural cysteines C92 and C147 of Smc6; also called E-Cys, Smc5; source: E. coli (DE3) Rosetta, purified as part of the hexamer
binding result (Smc6-3C-Twin-Strep): binds
